Laboratory results taken from patent publication US20110282033A1 (Ablynx, published 2011).
Residue numbers refer to the chain shown, from its start.

Tests used:
[1] = target: dimeric VEGFR1/Fc chimera (R&D Systems Cat #321-FL) (UniProt P17948); assay: competition ELISA: VEGFR1-Fc (0.1 ug/ml) pre-mixed with Nanobody, binding to coated VEGF165 (0.2 ug/ml), detection with HRP anti-human IgG
[2] = target: T1, Recombinant human PDGFRβ/Fc chimera (R&D Systems Cat #385 PR) (human, UniProt P09619 33-532); assay: phage ELISA on PDGFRβ-Fc (0.1 ug/ml) captured by coated anti-human IgG, detection with HRP anti-M13
T1 construct: extracellular domain; Bought reagent; also called PDGFRP-Fc; not shown: Fc part of the bought chimera (captured and detected with anti-human IgG)
Description: In order to determine binding specificity to PDGFRβ-Fc, the clones were tested in an ELISA binding assay setup, using the monoclonal phage pools. Shortly, 1 ug/ml of Fc-capturing Ab (Rabbit anti-human IgG, DAKO # A423) was coated on Maxisorp ELISA plates (Nunc) and free binding sites were blocked using 4% Marvel skimmed milk in PBS. Next, 0.1 ug/ml receptor in 2% Marvel/PBS was captured. After a wash step with PBS, 10 ul of supernatant from the monoclonal phage inductions of the different clones in 100 ul 2% Marvel PBS were allowed to bind to the captured PDGFRP-Fc. […] Binding specificity was determined based on OD values compared to controls having received no phage.

PDGFRb on HeLa cells = target: T2, PDGFRb on HeLa cells (human, UniProt P09619 33-1106); assay: immunofluorescence on HeLa cells, 40 nM Nanobody, detection with mouse anti-myc and goat anti-mouse Alexa 488; PDGFR co-stained with a commercial antibody
T2 construct: whole, on cells; HeLa cells were not transfected
Description: 40 nM of nanobody was added in medium and incubated 30 minutes at room temperature. Cells were put on ice to stop internalization and washed 3 times with ice-cold PBS. Cells were fixed by incubation for 30 minutes with 4% PFA at room temperature. After washing with PBS amine groups were blocked by incubation for 10 min. with 100 mM glycin in PBS at room temperature. After washing cells were permeabilized by incubation for 5 min. with 0.2% TritonX-100 in PBS at room temperature.
Cells were blocked by incubation in 2% Marvell/PBS for 15 minutes. Subsequently nanobodies were detected by incubation for 1 hour with mouse anti-myc (9E10) antibody in 2% Marvell/PBS and after washing 1 hour with goat-anti-mouse-alexa-488 in 2% Marvell/PBS in the dark. After washing coverslips were mounted with 4 ul mowiol and let to dry for at least 30 minutes. Dry slides were stored at −20 C.

[3] = target: T3, Recombinant human FGFR4/Fc chimera (R&D Systems Cat #685 FR) (human, UniProt P22455 22-369); assay: ELISA: periplasmic extract on coated FGFR4-Fc (500 ng/ml)
T3 construct: extracellular domain; Bought reagent; also called Fc-FGFR4; not shown: Fc part of the bought chimera (detected with anti-human IgG)
T3 sequence (looked up): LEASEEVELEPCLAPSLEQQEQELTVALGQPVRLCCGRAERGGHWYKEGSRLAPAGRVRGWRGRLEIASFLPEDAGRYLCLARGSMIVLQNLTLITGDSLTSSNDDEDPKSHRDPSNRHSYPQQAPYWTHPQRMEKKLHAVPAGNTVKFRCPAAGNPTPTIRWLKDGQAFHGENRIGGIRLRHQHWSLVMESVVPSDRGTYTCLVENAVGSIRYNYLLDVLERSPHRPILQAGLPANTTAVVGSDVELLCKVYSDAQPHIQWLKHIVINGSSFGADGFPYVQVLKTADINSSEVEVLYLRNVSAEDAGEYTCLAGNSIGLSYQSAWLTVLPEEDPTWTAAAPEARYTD
Description: In order to determine binding specificity to FGFR4, the clones were tested in an ELISA binding assay setup, using the monoclonal […]. Shortly, 500 ng/ml of Fc-FGFR4 (R&D Systems Cat #685 FR) was coated on Maxisorp ELISA plates (Nunc) and free binding sites were blocked using 4% Marvel skimmed milk in PBS. After a wash step with PBS, 10 ul of periplasmic extract from the monoclonal inductions of the different clones in 100 ul 2% Marvel PBS were allowed to bind to the FGFR4-Fc. […] 53-G3 was used as a reference since it was selected against PDGFRβ-Fc.

[4] = target: T1, Recombinant human PDGFRβ/Fc chimera …; assay: competition ELISA: PDGFRβ-Fc (12 nM) pre-mixed with Nanobody, binding to coated PDGF-BB (80 nM), detection with HRP anti-human IgG
Description: In order to determine the receptor blocking efficiency of clones tested positive for PDGF-BB competition, a dilution series of purified Nanobodies were tested in the ELISA-based ligand competition setup. In short, 1.0 ug/ml (80 nM) recombinant human PDGF-BB (R&D Systems #220-BB) was coated in 96 well Maxisorp microtiter plates (Nunc) and blocked with 4% Marvel skimmed milk in PBS. In parallel, 1 ug/ml (12 nM) PDGFRβ-Fc chimera was incubated with a dilution series of purified Nanobodies. After 1 hour, the receptor-Nanobody pre-mixes were incubated 1 hour with the coated ligand. Bound PDGFRβ-Fc was detected using HRP-conjugated goat anti-human IgG (Jackson Immunoresearch, Cat # 109-035-098). […] Ligand is coated at 80 nM and receptor is added at 12 nM.

[5] = target: T3, Recombinant human FGFR4/Fc chimera (R&D …); assay: competition ELISA: FGFR4-Fc with heparin and MgCl2 pre-mixed with Nanobody, binding to coated acidic FGF (129 nM), detection with HRP anti-human IgG
Description: Clones tested in the FGFR4 binding assay were also screened for their ability to block acidic FGF binding to FGFR4-Fc. For this, purified Nanobodies, were used in an ELISA-based ligand competition setup. In short, 2.0 ug/ml (129 nM) human FGF (R&D Systems Cat #232-FA/CF) was coated in 96 well Maxisorp microtiter plates (Nunc) and blocked with 4% Marvel skimmed milk in PBS. In parallel, 0.25 ug/ml (1.9 nM) FGFR4-Fc chimera plus 2.5 μg/ml heparin and 10 mM MgCl₂ were incubated with periplasmic extracts or purified Nanobody. After 1 hour, the receptor-Nanobody pre-mixes were incubated 1 hour with the coated ligand. Bound FGFR4-Fc was detected using HRP-conjugated goat anti-human IgG (Jackson Immunoresearch, Cat #109-035-098). Blocking activity was determined as loss of OD signal, as compared to wells where irrelevant Nanobody had been added. […] Ligand is coated at 129 nM and receptor is added at […].

[6] = target: T1, Recombinant human PDGFRβ/Fc chimera …; assay: ELISA ligand competition with PDGFRβ-Fc and coated PDGF-BB (FIG. 5)
Description: Clones tested in the PDGFRβ binding assay were also screened for their ability to block PDGF-BB binding to PDGFRβ-Fc. For this, Nanobody containing periplasmic extracts, or selected purified Nanobodies, were used in an ELISA-based ligand competition setup. In short, 1.0 ug/ml (80 nM) recombinant human PDGF-BB (R&D Systems #220-BB) was coated in 96 well Maxisorp microtiter plates (Nunc) and blocked with 4% Marvel skimmed milk in PBS. In parallel, 1 ug/ml (12 nM) PDGFRβ-Fc chimera was incubated with periplasmic extracts or purified Nanobody. After 1 hour, the receptor-Nanobody pre-mixes were incubated 1 hour with the coated ligand. Bound PDGFRβ-Fc was detected using HRP-conjugated goat anti-human IgG (Jackson Immunoresearch, Cat #109-035-098). Blocking activity was determined as loss of OD signal, as compared to wells where no Nanobodies, or irrelevant Nb, had been added.

T1 sequence (P09619 33-532, change not shown): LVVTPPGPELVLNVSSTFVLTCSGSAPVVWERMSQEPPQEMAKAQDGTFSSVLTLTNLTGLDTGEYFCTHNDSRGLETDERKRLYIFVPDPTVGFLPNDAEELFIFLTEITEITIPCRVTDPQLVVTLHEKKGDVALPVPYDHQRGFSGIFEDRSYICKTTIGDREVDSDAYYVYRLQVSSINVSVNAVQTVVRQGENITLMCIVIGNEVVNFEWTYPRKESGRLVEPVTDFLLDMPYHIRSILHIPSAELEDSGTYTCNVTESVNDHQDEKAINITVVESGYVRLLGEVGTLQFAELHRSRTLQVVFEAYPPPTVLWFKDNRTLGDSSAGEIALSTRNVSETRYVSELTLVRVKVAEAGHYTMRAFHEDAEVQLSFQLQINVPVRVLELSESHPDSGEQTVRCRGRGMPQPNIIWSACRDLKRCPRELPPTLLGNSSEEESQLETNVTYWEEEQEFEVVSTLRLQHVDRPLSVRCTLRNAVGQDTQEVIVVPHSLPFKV
T2 sequence (P09619 33-1106): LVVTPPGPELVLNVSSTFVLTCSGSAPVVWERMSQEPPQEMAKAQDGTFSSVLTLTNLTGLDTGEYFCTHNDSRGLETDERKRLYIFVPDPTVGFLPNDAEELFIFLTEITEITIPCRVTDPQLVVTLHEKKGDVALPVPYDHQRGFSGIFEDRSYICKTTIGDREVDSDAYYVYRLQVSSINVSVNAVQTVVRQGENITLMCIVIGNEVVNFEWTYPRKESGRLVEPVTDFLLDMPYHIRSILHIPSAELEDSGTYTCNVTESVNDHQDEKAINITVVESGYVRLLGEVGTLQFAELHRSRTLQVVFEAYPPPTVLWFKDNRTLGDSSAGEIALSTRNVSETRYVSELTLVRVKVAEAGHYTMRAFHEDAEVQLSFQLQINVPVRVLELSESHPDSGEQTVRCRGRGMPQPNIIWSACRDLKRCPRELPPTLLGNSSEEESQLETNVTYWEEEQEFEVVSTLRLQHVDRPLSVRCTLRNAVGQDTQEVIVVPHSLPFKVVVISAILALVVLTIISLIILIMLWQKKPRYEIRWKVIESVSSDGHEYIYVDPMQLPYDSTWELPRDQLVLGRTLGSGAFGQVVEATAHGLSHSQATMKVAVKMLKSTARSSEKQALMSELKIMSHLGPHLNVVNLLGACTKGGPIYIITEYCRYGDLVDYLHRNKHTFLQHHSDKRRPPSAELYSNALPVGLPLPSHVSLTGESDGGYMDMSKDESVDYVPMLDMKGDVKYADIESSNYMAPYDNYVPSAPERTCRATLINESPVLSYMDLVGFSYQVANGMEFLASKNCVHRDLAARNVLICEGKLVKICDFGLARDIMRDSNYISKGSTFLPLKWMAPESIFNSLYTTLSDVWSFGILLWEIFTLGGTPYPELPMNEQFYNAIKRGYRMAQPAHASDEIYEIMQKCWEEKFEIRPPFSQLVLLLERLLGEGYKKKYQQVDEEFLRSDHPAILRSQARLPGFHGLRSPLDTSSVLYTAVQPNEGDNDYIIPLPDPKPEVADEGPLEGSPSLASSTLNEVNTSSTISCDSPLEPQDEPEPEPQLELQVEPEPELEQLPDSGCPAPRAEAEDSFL
Sequence of dimeric VEGFR1/Fc chimera (R&D Systems Cat #321-FL) (P17948 27-758 limits assumed, change not shown): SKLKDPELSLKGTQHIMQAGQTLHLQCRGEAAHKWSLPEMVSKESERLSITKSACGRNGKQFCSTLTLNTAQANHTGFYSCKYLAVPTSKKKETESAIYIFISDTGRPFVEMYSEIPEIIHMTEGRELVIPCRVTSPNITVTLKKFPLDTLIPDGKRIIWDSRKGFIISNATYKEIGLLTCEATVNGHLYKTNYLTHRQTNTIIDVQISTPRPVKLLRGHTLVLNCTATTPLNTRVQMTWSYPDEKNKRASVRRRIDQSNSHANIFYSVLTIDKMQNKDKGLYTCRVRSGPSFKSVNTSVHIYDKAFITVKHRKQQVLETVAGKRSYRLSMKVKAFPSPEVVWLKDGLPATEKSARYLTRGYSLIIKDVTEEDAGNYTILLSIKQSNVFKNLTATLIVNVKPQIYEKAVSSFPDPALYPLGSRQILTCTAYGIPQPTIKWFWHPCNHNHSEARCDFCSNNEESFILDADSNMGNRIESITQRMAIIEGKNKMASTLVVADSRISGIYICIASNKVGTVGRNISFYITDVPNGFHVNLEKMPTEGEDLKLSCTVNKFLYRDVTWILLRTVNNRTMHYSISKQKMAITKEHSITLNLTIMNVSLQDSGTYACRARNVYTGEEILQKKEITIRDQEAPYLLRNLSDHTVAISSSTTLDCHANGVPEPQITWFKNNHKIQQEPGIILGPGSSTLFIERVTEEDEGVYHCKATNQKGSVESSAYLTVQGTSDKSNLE

B1: 46-F11 (VHH)
VHH: EVQLVESGGGLVQPGGSLRLSCAASGFTFSSYAMSWVRQAPGKELEWVSGINSGGDRTVNADSVKGRFTVSRDNAKNTLYLQMNSLKPEDTALYYCAKSIPPTDDRNYWGQGTQVTVSS
[1]
  IC50 (read off the curve): 1 nM

B2: 53-G3 (VHH)
VHH: EVQLVESGGGLVQAGGSLRLSCAASRRTFSSYAMGWFRQAPGKEREIVADISWNGSRTYYADSAKGRFTISRDNAKNTVYLQMNSLKPEDTAVYYCAAALFGGLGRAPSTHEYAYWGQGTQVTVSS
notes: Purified Nanobody; Also used as negative control in the FGFR4 assays
[2]
  binding result: binds
PDGFRb on HeLa cells
  binding result: binds
[3]
  binding result: no binding

B3: 53-B5 (VHH)
VHH: B2 VHH with I47V
notes: Purified Nanobody
[2]
  binding result: binds
PDGFRb on HeLa cells
  binding result: binds

B4: 53-H8 (VHH)
VHH: EVQLVESGGGLVQAGGSLRLTCVVSGRTYNNYVMGWFRQAPGKEREFVAGIDWSSSWTSTTLYADSVKGRFTISRNNAKKTVSLQMNSLKPEDTAVYYCAANLGSKNPSLRPGRETYNYWGQGAQVTVSS
notes: Purified Nanobody
[4]
  IC50 (read off the curve): ~9 nM

B5: 53-A5 (VHH)
VHH: EVQLVESGGGLVQAGGSLRLTCVVSGRTYNNYVMGWFRQAPGKEREFVAGIDWSSSWSSTLYADSVKGRFTISRNNAKKTVSLQMNSLKPEDTAVYYCAANLGSKNPSLRPGREAYNYWGQGTQVTVSS
notes: Purified Nanobody
[4]
  IC50 (read off the curve): ~8 nM

B6: 53-G10 (VHH)
VHH: EVQLVESGGGLVQAGGSLRLSCAASGLFFSFYNMGWFRQAPGKEREFVAIIRKTGGSTYYADSVKGRFTISRDNAKNTVYLQMDSLKPEDTAVYYCAAASSYYSDSYYYTRSDKYNYWGQGTQVTVSS
notes: Purified Nanobody
[4]
  IC50 (read off the curve): ~60 nM

B7: 55-D5 (VHH)
VHH: EVQLVESGGALVQPGGSLRLSCAASGFTFRNYDMSWVRQAPGKGPEWVSSINSGGGSTYYADSVKGRFTISRDNAKNTLYLQMNSLKPEDTAVYYCATGLITTAQAMLEEYDYWGQGTQVTVSS
notes: Purified Nanobody
[5]
  IC50 (read off the curve): ~8 nM

B8: 73-G9 (VHH)
VHH: EVQLVESGGGLVQPGGSLKLSCAAAGFTFRPYAMGWFRQAPGKEREFVAAVATNVGTTFYQDSVKGRFTISRDNAKNTVYLQMNSLRPEDTAVYYCNTKLYSGIFREYWGQGTQVTVSS
notes: Purified Nanobody
[5]
  IC50 (read off the curve): ~10 nM

B9: 42-H5 (VHH)
VHH: EVQLVESGGGLVQPGGSLTLSCAASGFTFSSYAMSWVRQAPGKGLELVSDINSGGISTYYADSVKGRFTISRDNAKNTLYLQMNSLKPEDTAVYYCKTDTLVAGTDDYWGQGTRVTVSS
notes: Purified Nanobody; Also used as negative control in the PDGFRβ assays
[6]
  binding result: no binding (tested: 50 nM)
